Test results as given in patent US20250289887A1 (Memorial Sloan Kettering, published 2025).

Target: T1, FKBP12 drug-induced heterodimerization domain (DmrA) (Homo sapiens (Human), UniProt P62942 2-108)
T1 construct: also called FKBP12-DmRA; FKBP12 heterodimerizing domain
Assay: drug-induced heterodimerization inside mouse T cells, with 1 µM AP21967; read out as hCD34 surface expression by flow cytometry (FIG. 9B)
Excerpt: In the instant example, mouse T cells were transduced with the following 2 vectors (FIG. 9A): (Vector 1) encodes a Thy1.1 reporter and a drug-activated intein-tagged antigen-binding construct comprised of a CD19-targeting scFv fused to a hCD34 affinity-tag, a CD8 hinge and transmembrane domain, an AES CL low affinity intein N terminus, an FKBP12 drug-induced heterodimerization domain (DmrA), and an E319K ER retention motif, while (Vector 2) encodes an EGFP reporter and a cytoplasmic signaling shuttle comprised of a FRB drug-induced heterodimerization domain (DmrC), an AES CL low affinity intein C terminus, a CD28 costimulatory domain, and a CD3-zeta chain. In the absence of the dimerizing drug, hCD34 expression at the cell surface is low due to presence of the ER retention motif encoded by Vector1 (FIG. 9B). […] Thus, this system enables drug-regulated splicing to regulate post-translational CAR assembly. Double-transduced cells were cultured with 1 μM A/C heterodimerizing drug and subsequently enriched by MACS sorting using anti-hCD34 magnetic beads to yield highly pure hCD34+CD19-CAR T cells (FIG. 9B). […] This methodology improves upon previous FKBP/FRB-based drug-regulated CAR systems by eliminating the FKBP/FRB proteins following trans-splicing and generating a mature CAR molecule. […]

T1 sequence (P62942 2-108 limits assumed, one chain of several): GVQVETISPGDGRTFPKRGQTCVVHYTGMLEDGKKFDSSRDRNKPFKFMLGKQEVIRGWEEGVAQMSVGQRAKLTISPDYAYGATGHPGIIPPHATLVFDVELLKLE

B1: FRB* heterodimerization domain (DmrC) (other)
chain: MILWHEMWHEGLEEASRLYFGERNVKGMFEVLEPLHAMMERGPQTLKETSFNQAYGRDLMEAQEWCRKYMKSGNVKDLLQAWDLYYHVFRRISK
notes: also called FRB drug-induced heterodimerization domain (DmrC); FRB (DmrB)
binding result: binds
